Measured values published in patent US20250163127A1.

Legend:
CD226 (human) = target: T1, CD226 (human) (UniProt Q15762); assay: flow cytometry, transfected HEK293 cells
T1 sequence: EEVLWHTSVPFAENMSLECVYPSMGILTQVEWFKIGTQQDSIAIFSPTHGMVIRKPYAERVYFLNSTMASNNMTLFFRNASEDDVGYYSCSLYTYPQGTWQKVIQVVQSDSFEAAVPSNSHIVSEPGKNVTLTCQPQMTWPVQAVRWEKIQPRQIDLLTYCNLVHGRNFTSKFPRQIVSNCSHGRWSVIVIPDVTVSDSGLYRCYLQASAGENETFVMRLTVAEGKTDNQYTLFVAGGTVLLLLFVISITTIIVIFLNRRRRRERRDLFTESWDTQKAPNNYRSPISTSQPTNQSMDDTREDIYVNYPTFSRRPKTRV

CD96 (human) = target: T2, CD96 (human) (UniProt P40200); assay: flow cytometry, transfected HEK293 cells
T2 sequence: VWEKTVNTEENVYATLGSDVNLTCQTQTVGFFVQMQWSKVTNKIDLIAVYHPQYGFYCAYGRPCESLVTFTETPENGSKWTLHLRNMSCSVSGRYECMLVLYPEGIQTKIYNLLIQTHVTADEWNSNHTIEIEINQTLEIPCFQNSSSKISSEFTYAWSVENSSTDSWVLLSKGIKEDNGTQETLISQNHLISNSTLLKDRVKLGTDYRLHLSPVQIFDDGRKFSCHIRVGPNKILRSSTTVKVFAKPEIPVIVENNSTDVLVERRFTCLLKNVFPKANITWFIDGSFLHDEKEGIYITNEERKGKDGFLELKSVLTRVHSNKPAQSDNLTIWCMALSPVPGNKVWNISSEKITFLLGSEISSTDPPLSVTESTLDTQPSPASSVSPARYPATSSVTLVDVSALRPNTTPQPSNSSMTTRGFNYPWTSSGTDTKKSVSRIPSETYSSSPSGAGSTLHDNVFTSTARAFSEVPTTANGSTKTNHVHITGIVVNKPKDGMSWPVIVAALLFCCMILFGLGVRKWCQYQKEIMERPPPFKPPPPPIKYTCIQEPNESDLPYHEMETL

CTLA-4 (human) = assay: flow cytometry on HEK293 cells transfected with CTLA4
Sequence of CTLA-4 (human) (chain, as listed by the source): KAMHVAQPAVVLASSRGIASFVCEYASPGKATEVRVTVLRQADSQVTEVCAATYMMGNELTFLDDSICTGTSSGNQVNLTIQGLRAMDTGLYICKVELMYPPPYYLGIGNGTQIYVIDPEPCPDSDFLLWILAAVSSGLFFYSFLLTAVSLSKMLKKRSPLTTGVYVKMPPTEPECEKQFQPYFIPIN

PD-L1 (human) = assay: flow cytometry on HEK293 cells transfected with PD-L1
Sequence of PD-L1 (human) (chain, as listed by the source): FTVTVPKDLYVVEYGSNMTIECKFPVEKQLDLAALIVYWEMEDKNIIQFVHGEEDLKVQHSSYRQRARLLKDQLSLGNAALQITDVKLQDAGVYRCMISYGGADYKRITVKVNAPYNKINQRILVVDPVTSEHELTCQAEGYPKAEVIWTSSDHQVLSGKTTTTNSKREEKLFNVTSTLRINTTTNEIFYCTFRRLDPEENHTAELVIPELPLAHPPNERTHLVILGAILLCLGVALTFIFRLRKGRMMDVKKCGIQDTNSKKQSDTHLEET

human PD-1 (human) = human PD-1 (human) (UniProt Q15116); assay: flow cytometry, CHO/PD-1 cells, 100 nM, anti-Flag
Sequence of human PD-1 (human) (Q15116 25-288): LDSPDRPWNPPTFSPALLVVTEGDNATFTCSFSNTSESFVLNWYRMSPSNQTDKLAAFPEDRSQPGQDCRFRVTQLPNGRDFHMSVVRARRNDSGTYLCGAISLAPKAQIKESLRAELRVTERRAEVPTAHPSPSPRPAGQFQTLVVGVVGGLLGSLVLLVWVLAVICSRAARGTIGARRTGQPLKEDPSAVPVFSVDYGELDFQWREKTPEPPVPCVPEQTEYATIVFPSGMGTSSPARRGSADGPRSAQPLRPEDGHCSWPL

CD28 (human) = CD28 (human) (UniProt P10747); assay: flow cytometry, Jurkat cells (endogenous CD28), 100 nM, anti-Flag
human CTLA-4 (human) = assay: flow cytometry, CHO/CTLA-4 cells, 100 nM, anti-Flag

B1: variant CD155 IgV-Fc, S42L, S52Q, L104E (Fc fusion)
chain: WPPPGTGDVVVQAPTQVPGFLGDSVTLPCYLQVPNMEVTHVLQLTWARHGEQGSMAVFHQTQGPSYSESKRLEFVAARLGAELRNASLRMFGLRVEDEGNYTCEFVTFPQGSRSVDIWLRVL
CD226 (human)
  MFI at 100 nM: 6470
CD96 (human)
  MFI at 100 nM: 1700

B2: Variant CD80 E35D/A71D Fc fusion (Table E14B) (Fc fusion)
chain: VIHVTKEVKEVATLSCGHNVSVEELAQTRIYWQKDKKMVLTMMSGDMNIWPEYKNRTIFDITNNLSIVILDLRPSDEGTYECVVLKYEKDAFKREHLAEVT
CTLA-4 (human)
  MFI at 66.6 nM: 150000 MFI
PD-L1 (human)
  MFI at 22.2 nM: 13800 MFI

B3: ICOSL 2264 (monomeric variant ICOSL IgV N52H/N57Y/Q100R) (ligand)
chain: DTQEKEVRAMVGSDVELSCACPEGSRFDLNDVYVYWQTSESKTVVTYHIPQHSSLEYVDSRYRNRALMSPAGMLRGDFSLRLFNVTPQDEQKFHCLVLSRSLGFQEVLSVEVTLHVAANFSV
Human PD-1 (human)
  MFI: 1510
CD28 (human)
  MFI: 16100
Human CTLA-4 (human)
  MFI: 70800
